Source: paper PMC4344507, “Structural and functional characterization of a cell cycle associated HDAC1/2 complex reveals the structural basis for complex assembly and nucleosome targeting” (Nucleic Acids Research, 2015)

Target: the molecule itself
Test: crystal structure; DNTTIP1 (56–147), hanging drops at 22°C, 100 mM sodium acetate pH 4.6, 14% propan-2-ol; MAD phasing with SeMet protein; P212121

B1: Human DNTTIP1 (56–147) (domain or fragment, UniProt Q9H147 56-147, looked up)
chain: MTTSFTDPAISMDLLRAVLQPSINEEIQTVFNKYMKFFQKAALNVRDNVGEEVDAEQLIQEACRSCLEQAKLLFSDGEKVIPRLTHELPGIK
notes: DNTTIP1, human, residues 56-147; Native and selenomethionine substituted protein were both crystallized; six molecules (three dimers) in the asymmetric unit; also called DD; N-terminal dimerization domain; source: E. coli Rosetta-pLysS or B834(DE3), purified (Ni-NTA, Resource Q, Superdex S75)
  stoichiometry N: 2
